Test results from US20070048268A1 (ZymoGenetics, published 2007).

Biological target: biotinylated murine IL-21 (murine, UniProt Q9ES17 18-146)
Test: flow cytometry on MOLT-13, HuT-78, HuT-102, DEL and YT cells, 40 ng/ml to 1000 ng/ml, Streptavidin-PE
Method: Cells were analyzed on a FACSScan using CellQuest software (Becton Dickinson, Mountain View, Calif.).

binding result: binds
B1: human IL-21 receptor (receptor)
chain: not shown
notes: also called zalpha11 receptor; zalpha11
